Measured values as given in publication PMC10844685.

Molecular target: pyruvate kinase isoform M2 (PKM2) (human (endogenous in MDA-MB-231 and Hs578T)) (UniProt P14618)
Assay: native gel or EMSA; total protein of MDA-MB-231 and Hs578T cells, not heat-denatured, non-denaturing loading buffer, native PAGE running buffer, western blot with anti-PKM2; cells with miR-29c-3p inhibitor, with or without TRIM9 knockdown

pyruvate kinase isoform M2 (PKM2), P14618 1-531 (enzyme; other documents disagree on this pair), sequence (P14618 whole entry, canonical isoform): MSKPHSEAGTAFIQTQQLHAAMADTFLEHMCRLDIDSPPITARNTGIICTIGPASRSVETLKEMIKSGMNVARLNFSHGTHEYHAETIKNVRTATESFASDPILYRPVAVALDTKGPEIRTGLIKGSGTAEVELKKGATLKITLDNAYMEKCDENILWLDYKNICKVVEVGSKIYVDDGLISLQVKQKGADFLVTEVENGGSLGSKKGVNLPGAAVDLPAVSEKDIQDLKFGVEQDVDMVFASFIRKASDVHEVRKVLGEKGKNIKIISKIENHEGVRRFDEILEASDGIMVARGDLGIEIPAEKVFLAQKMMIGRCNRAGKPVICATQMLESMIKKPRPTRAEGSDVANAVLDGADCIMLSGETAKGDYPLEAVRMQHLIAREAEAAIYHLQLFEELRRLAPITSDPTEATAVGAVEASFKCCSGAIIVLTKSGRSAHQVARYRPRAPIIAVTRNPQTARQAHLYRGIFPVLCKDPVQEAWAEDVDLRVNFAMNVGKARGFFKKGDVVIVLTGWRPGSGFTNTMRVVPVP

- stoichiometry N: 2
Substance: pyruvate kinase isoform M2 (PKM2), P14618 1-531 (enzyme; other documents disagree on this pair)
